# From article PMC12856111
# Legend:
# Test in all cases: SEC; Superdex 200 Increase 10/300 GL, 4°C; mFAS samples incubated at 37°C for 1 h beforehand to promote dimerization; oligomeric state read from the elution volume
# mFASΔTE Y2027F (mouse) = mFASΔTE Y2027F (mouse) (UniProt P19096)
# mFASΔTE G2054F (mouse) = mFASΔTE G2054F (mouse) (UniProt P19096)
# [1] = target: mFASΔTE S2014A/Y2027F (mouse) (UniProt P19096)
# mFASΔTE S2014A (mouse) = mFASΔTE S2014A (mouse) (UniProt P19096)
# [2] = target: mFASΔTE (metazoan fatty acid synthase lacking the TE domain) (mouse) (UniProt P19096)
# mFASΔTE T2076F (mouse) = mFASΔTE T2076F (mouse) (UniProt P19096)
substance,measurement,setting,value
mFASΔTE Y2027F (from UniProt P19096 1-2504) (enzyme),stoichiometry N,mFASΔTE Y2027F (mouse),2
mFASΔTE G2054F (from UniProt P19096 1-2504) (enzyme),stoichiometry N,mFASΔTE G2054F (mouse),2
mFASΔTE S2014A/Y2027F (from UniProt P19096 1-2504) (enzyme),stoichiometry N,[1],2
mFASΔTE S2014A (from UniProt P19096 1-2504) (enzyme),stoichiometry N,mFASΔTE S2014A (mouse),2
mFASΔTE (metazoan fatty acid synthase lacking the TE domain) (from UniProt P19096 1-2504) (enzyme),stoichiometry N,[2],2
mFASΔTE T2076F (from UniProt P19096 1-2504) (enzyme),stoichiometry N,mFASΔTE T2076F (mouse),2
